Positions count from the first letter of the chain named. One block for each binder: values may come before it. Starred links: 1 amine or outer side, 2 acyl side, 3 side chain; linkers in the order of their positions; H or OH if unused. Positions of bridges follow the written chain, without caps; N, C: chain ends. No end group written: not given here. mXylylene = c1cc(C[*:1])cc(C[*:2])c1; oXylylene = c1ccc(C[*:2])c(C[*:1])c1
Key:
[1] = biological target: T1, human serum albumin (human, UniProt P02768 25-609); experiment: SPR (ProteOn XPR36), HSA immobilized, 1:1 Langmuir fit, triplicate
T1 construct: Immobilized on the sensor chip (2500 RU in screening; 1100-1600 RU in kinetics); also called HSA
Protocol: (§1) Biosensor binding analyses were performed on a ProteOn XPR36 instrument (Bio-Rad) at 25° C. using PBST (150 mM NaCl, 8 mM Na₂HPO₄, 2 mM NaH₂PO₄, 0.005% Tween20, pH 7.4) as running buffer at a flow rate of 50 μl min⁻¹. An injection of 30 μl of 20 mM HCl at a flow rate of 100 μl min⁻¹ was used for chip regeneration. In a screening experiment, the binding of all polypeptide variants to human serum albumin (HSA) was investigated. The proteins were diluted to 50 nM in running buffer and injected over a chip surface with 2500 RU of immobilized HSA. The association was studied for 300 s and the dissociation was followed for 7200 s (2 h). For data analysis, all samples were double referenced; the signal from a blank surface was first subtracted from the signal from the respective protein, and secondly the signal from an injection of PBST (running buffer) over the HSA surface was subtracted.
The HSA binding kinetics of PEP18049_CL and the reference protein PEP07830 were further studied using a sensor chip with HSA immobilized on three different surfaces to between 1100 RU and 1600 RU. The proteins were diluted in running buffer (0.8, 1.6, 3.3, and 6.6 nM for PEP18049_CL and 1.0, 2.0, 4.0 and 8.0 nM for PEP07830) and injected over the three HSA surfaces and thus giving binding curves in triplicate. The association time was 300 s and the dissociation was followed for 36 000 s (10 h).
(§2) The kinetic parameters of the binding of PEP18049_CL and the reference protein PEP07830 to HSA were obtained from fitting the obtained sensorgrams to a 1:1 Langmuir binding model using the ProteOn Manager software version 3.1.0.6 (Bio-Rad). The average association rate constant (kₐ (M⁻¹ s⁻¹) and dissociation rate constant (kd (s⁻¹)) with standard deviation were calculated. From the average kₐ and the kd the dissociation equilibrium constant (KD (M)) was calculated (KD=kd/kₐ).

[2] = biological target: T1, human serum albumin; experiment: SPR (ProteOn XPR36), HSA immobilized, KD=kd/ka
Protocol: as §1, with “subtracted. […]” for “subtracted.”
as §2

[3] = biological target: T1, human serum albumin; experiment: SPR (ProteOn) screening, 50 nM over immobilized HSA
Protocol: as §1

[4] = biological target: T1, human serum albumin; experiment: SPR (ProteOn XPR36), polypeptide injected over immobilized HSA
Protocol: as §1

B1: PEP18049_CL (designed binder)
chain: LAEAKEAANAELDSYGCSDFYKRLIDKAKTVEGVEALKDAILAAKP
modifications: not fully specified; N-terminal leucine capped with acetic anhydride (acetylated); chloroacetylated Lys45 joined to the thiol of Cys17 by a thioether bond (intramolecular crosslink Cys17-Lys45); synthesised on Rink Amide resin
notes: also called crosslinked PEP18049
- koff [1]: 1.5e-05 s⁻¹
- kon [1]: 620000 M⁻¹ s⁻¹
- Kd [2]: 0.024 nM

B2: PEP18051_CL (designed binder)
chain: B1 chain with L1C, C17V, K45L
modifications: not fully specified; chloroacetylated Lys29 joined to the thiol of Cys1 by a thioether bond (intramolecular crosslink Cys1-Lys29); synthesised on Rink Amide resin
notes: Control crosslinked variant; also called crosslinked PEP18051
- binding result [3]: binds

B3: PEP14788_CL_A (designed binder)
chain: LAEAKEAANAELDSYGCSDFYKRLIDKAKTVEGVEALKDAILAACP-NH2
modifications: linker 17-45 via oXylylene
notes: Chemically synthesised Cys-Cys crosslinked variant; also called PEP14788 crosslinked with linker A (o-xylylene dibromide)
- binding result [3]: binds

B4: PEP14788_CL_B (designed binder)
chain: LAEAKEAANAELDSYGCSDFYKRLIDKAKTVEGVEALKDAILAACP-NH2
modifications: linker 17-45 via mXylylene
notes: Chemically synthesised Cys-Cys crosslinked variant; also called PEP14788 crosslinked with linker B (m-xylylene dibromide)
- binding result [3]: binds

B5: PEP14788_CL_E (designed binder)
chain: LAEAKEAANAELDSYGCSDFYKRLIDKAKTVEGVEALKDAILAACP-NH2
modifications: linker 17-45 via 2,6‑bis(bromomethyl)pyridine
notes: Chemically synthesised Cys-Cys crosslinked variant; also called PEP14788 crosslinked with linker E (2,6-bis(bromomethyl)pyridine)
- binding result [3]: binds

B8: PEP07830 (designed binder)
chain: LAEAKEAANAELDSYGVSDFYKRLIDKAKTVEGVEALKDAILAALP-NH2
notes: Linear (non-crosslinked) control, made by solid phase peptide synthesis
- koff [1]: 4.1e-06 s⁻¹
- kon [1]: 190000 M⁻¹ s⁻¹
- Kd [2]: 0.021 nM

Further lines, results first:

- binding result [4]: no binding (tested: 50 nM)
B6: PEP18050_CL (designed binder)
chain: B1 chain with C17V, A28C, K45L
modifications: not fully specified; chloroacetylated Lys5 joined to the thiol of Cys28 by a thioether bond (intramolecular crosslink Lys5-Cys28); synthesised on Rink Amide resin
notes: Control crosslinked variant; also called crosslinked PEP18050

- binding result [4]: no binding (tested: 50 nM)
B7: PEP18052_CL (designed binder)
chain: B1 chain with A28C
modifications: not fully specified; two thioether crosslinks between chloroacetylated lysines and cysteines: Lys5-Cys28 and Cys17-Lys45; synthesised on Rink Amide resin
notes: Control, double crosslinked variant; the expected mass was found in two HPLC peaks that behaved alike; also called crosslinked PEP18052

- binding result [3]: binds
B9: PEP14789_CL_A (designed binder)
chain: GSSLAEAKEAANAELDSYGCSDFYKRLIDKAKTVEGVEALKDAILAACP
modifications: linker 20-48 via oXylylene
notes: Recombinantly produced in E. coli; same as PEP14788 but with an N-terminal GSS (expressed with an MGSS extension); The crosslink positions are printed as Cys17-Cys45, probably counted without the GSS; also called PEP14789 crosslinked with linker A (o-xylylene dibromide)

- binding result [3]: binds
B10: PEP14789_CL_B (designed binder)
chain: B9 chain
modifications: linker 20-48 via mXylylene
notes: Recombinantly produced in E. coli; same as PEP14788 but with an N-terminal GSS (expressed with an MGSS extension); The crosslink positions are printed as Cys17-Cys45, probably counted without the GSS; also called PEP14789 crosslinked with linker B (m-xylylene dibromide)
